This passage reports IC50 results from patent EP0730609B1.

This assay addresses IL4 receptor on the gibbon cell line MLA (gibbon). As to the kind of experiment: displacement of 125I-IL4 (83 pM added) from gibbon MLA cells.

“recombinant human IL4 (E. coli, non-glycosylated) (from UniProt P05112 25-153) (ligand)” had an IC50 of 0.022 nM.

Usually IC50 stands for the concentration at which inhibition is half-maximal. Low values mean greater potency, high ones weaker potency.
